Reference: the RNAGym collection of RNA variant scans (doi:10.1073/pnas.2313332121)

B1: TPR t1 (parent)
chain: GACCAAUCUGCCCUCAGAGCUCGAGAACAUCUUCGGAUGCAGAGGAGGCAGGCUUCGGUGGCGCGAUAGCGCCAACGUCCUCAACCUCCAAUGCAUCCCACCACAUGAUGAUGCCUGAAGAGCCUUGGUUUUUUG

Variants of: B1
Assay: polymerase ribozyme fitness, log enrichment relative to wild type (log ratio); higher = more active; in vitro selection for triplet polymerase activity
In short: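 In triplicate, a single round of in vitro selection was run on each mutant library, PCR-built and transcribed, covering one subunit of a heterodimeric triplet polymerase ribozyme. Frozen incubation at −7 °C followed annealing with a biotinylated primer, partner subunit and triplets, and extended constructs were then gel-excised, streptavidin-captured and taken through RT-PCR. Fitness is the logarithm of genotype enrichment over wild-type enrichment, from inverse-variance-weighted replicate averages of Illumina-sequenced inputs and outputs. […] only genotypes with ≥10 input reads and ≥1 read per output were kept.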

In order of falling “polymerase ribozyme fitness (log ratio)” value:
1. G17A A37U C115U  0.842
2. G17A C72U A90U A121G  0.0637
3. A16U U112A  0.0459
4. G17C A18G G42U C80U U112C  -0.371
5. G17A A91C C124A U132A  -0.557
6. G17A C72G C124G  -0.994
7. G17C A83C A119G  -1.01
8. G17A G93A A121C  -1.03
9. G17A G69U  -1.14
10. G17A G120C G127U  -1.24
11. A16U G69U G77A U116A  -1.32
12. A16U G52A  -2.03
13. A16U U133G  -2.05
14. G17C U116G C124A  -2.05
15. A16U U106A  -2.08
16. A16U G110A U132C  -2.1
17. A16U U55C  -2.11
18. G17U  -2.29
19. G17A U132A  -2.35
20. G17U A37U G60A  -2.43
21. G17A  -2.59
22. G17A U78A G117A  -2.6
23. A16U G127U  -2.81
24. A16U G93A U133A  -2.82
25. G17C A18C A43U C89U  -2.92
26. A16U G45A A90G U96A U112G A118C  -3.03
27. G17A C123A  -3.08
28. G17U A43U  -3.34
29. G17A U96C  -3.36
30. G17A G122A  -3.37
31. G17A G39U  -3.39
32. G17A G44A  -3.41
33. G17C C20A A43C C123A U129G  -3.55
34. G17A G71C  -3.64
35. A16U G48U C62G C85A  -3.66
36. G17C  -3.67
37. G17A C88U U96C  -3.71
38. G17C U87A  -3.72
39. G17A C89U  -3.72
40. G17A U55A C72A  -3.74
41. G17A U78C C94U  -3.74
42. A16U G42U U130C  -3.77
43. G17A C89G  -3.97
44. G17U A29G U55A  -4.06
45. G17A A84C U87A U96G  -4.16
46. G17C G60C  -4.24
47. G17C G60A  -4.31
48. G17C G39A C64U  -4.45
49. A16U G45C C53G A90G G113A A121C  -4.47
50. G17A C70A  -4.58
51. G17A U129A  -4.6
52. G17C G36C C114G U131G  -4.72
53. G17A C72G U96A  -4.81
54. G17C C49A  -4.92
55. G17A C98U  -5.09
56. G17A C114A  -5.13
57. G17C C73A U125A  -5.15
58. G17C G42U C94U U106A  -5.2
59. G17C C72U C101A C115A C123A  -5.23
60. G17U A37U G47U  -5.29
61. G17A C72U C114U  -5.33
62. G17C C56G U96A  -5.36
63. G17A C101G  -5.5
64. G17C U21G G60C C79U G117A C124G  -5.63
65. A16U G71U U106G A111U  -5.64
66. G17C A83G U116G  -5.65
67. A16U G47U G52U C115U G117C  -5.71
68. G17A U55C G61U G113A U130C  -5.74
69. G17A A18C C22U G35A C70A C79G A90G C99A C124G  -5.86
70. G17A C62G G63A A74C A90C U109G  -5.9
71. A16U G63U G113U  -5.93
72. G17U A27U G61U  -6.16
73. G17C C22G G61U  -6.24
74. G17A G23A C64A C102G U109A  -6.59
75. G17A G25A G51C C53G A111C  -6.66
76. G17A G48A A95C U112A C114A  -6.73
77. G17A C115U U116C  -6.73
78. G17C G48U G60A C89G C102A C114A  -6.76
79. G17C C28A G63A G120C C123G  -6.85
80. G17C C20G G47C C72U G113A A119C  -7.02
81. G17C G25U G47C G120A G127A  -7.42
82. A16U U32A A46U A66C A103C A111G  -7.56
83. G17A G47U U54C G71C G77U G117C  -8.04
